Article doi:10.1101/2022.10.31.514592 (bioRxiv, 2022)

How the values were obtained:
spike WT-6P [1] = target: T1, spike WT-6P (SARS-CoV-2, wildtype (Wuhan-Hu-1 type), UniProt P0DTC2, stabilised, biotinylated (EZ-Link Sulfo-NHS-Biotin) for BLI); assay: ELISA
spike BA.1 Omicron-6P = spike BA.1 Omicron-6P (SARS-CoV-2, Omicron BA.1, strain, biotinylated (EZ-Link Sulfo-NHS-Biotin) for BLI); assay: ELISA
spike WT-6P [2] = target: T1, spike WT-6P; assay: BLI

B1: S626-161 IgG (antibody, V domains shown)
VH: QLQLQESGPGLVKPSEALSLTCTVSGGSISTSNYYWGWIRQPPGKGLEWIGSIYYRGGTHYNPSLKTRVTISVDTSKNQFSLKLSSVTAADTAVYYCARHTYFYDIVGAAVWEPFDIWGQGTMVTVSS
VL: not shown
binding result (spike WT-6P [1]): binds | fold increase of ELISA binding compared with spike BA.1-2P (spike BA.1 Omicron-6P): > 3 fold

B2: S626-161 Fab (Fab, V domains shown)
VH: QLQLQESGPGLVKPSEALSLTCTVSGGSISTSNYYWGWIRQPPGKGLEWIGSIYYRGGTHYNPSLKTRVTISVDTSKNQFSLKLSSVTAADTAVYYCARHTYFYDIVGAAVWEPFDIWGQGTMVTVSS
VL: not shown
binding result (spike WT-6P [2]): binds

B3: S451-1140 IgG (antibody, V domains shown)
VH: EVQLVESGGGLVPPGGSLRLSCAASGFIFSNYAMTWVRQAPGKGLEWVSAISGGGGSTDYADSVKGRFTISRDNSKNTLYLQMNSLRAEDTAVYYCAKDLFGSGWSLFDNWGQGTLVTVSS
VL: not shown
binding result (spike WT-6P [2]): binds | fold increase of ELISA binding compared with spike BA.1-2P (spike BA.1 Omicron-6P): > 3 fold

B4: S451-1140 Fab (Fab, V domains shown)
VH: EVQLVESGGGLVPPGGSLRLSCAASGFIFSNYAMTWVRQAPGKGLEWVSAISGGGGSTDYADSVKGRFTISRDNSKNTLYLQMNSLRAEDTAVYYCAKDLFGSGWSLFDNWGQGTLVTVSS
VL: not shown
binding result (spike WT-6P [2]): binds

B5: S728-1157 IgG (antibody, V domains shown)
VH: EVQLVESGGGLVQPGGSLRLSCAASGLLVSRNYMNWVRQAPGKGLEWVSIIYSGGSTFYADSVEGRFTISRDESKNTLYLQMNSLRTDDTAVYYCARDLSDYGGIDCWGQGTLVTVSS
VL: ELTQPLSVSMALGQTARISCGGDNVGSQNVHWYQQRPGQAPVLVIYRDSNRPSGIPERFSGSKSGNTATLTISRAQAGDEADYYCQVWDSSTVAFGGGTKLTVL
binding result (spike WT-6P [2]): binds | fold increase of ELISA binding compared with spike BA.1-2P (spike BA.1 Omicron-6P): > 3 fold

B6: S728-1157 Fab (Fab, V domains shown)
VH: EVQLVESGGGLVQPGGSLRLSCAASGLLVSRNYMNWVRQAPGKGLEWVSIIYSGGSTFYADSVEGRFTISRDESKNTLYLQMNSLRTDDTAVYYCARDLSDYGGIDCWGQGTLVTVSS
VL: ELTQPLSVSMALGQTARISCGGDNVGSQNVHWYQQRPGQAPVLVIYRDSNRPSGIPERFSGSKSGNTATLTISRAQAGDEADYYCQVWDSSTVAFGGGTKLTVL
binding result (spike WT-6P [2]): binds
